Assay results reported in publication PMC7094638 (Journal of Molecular Biology, 2007).
Numbering of substitutions follows the chain as printed. Like-named read-outs stand apart in the source and are kept apart here.

Key:
[1] = target: the molecule itself; assay: cross-linking
[2] = target: T1, SARS-CoV N protein CTD (NP248-365) (SARS-CoV, UniProt P59595 248-365); assay: EMSA
[3] = target: SARS-CoV N protein NTD (NP45-181) (SARS-CoV, UniProt P59595 45-181); assay: EMSA
[4] = target: SARS-CoV N protein NP281-365 (SARS-CoV, UniProt P59595 281-365); assay: EMSA
[5] = target: SARS-CoV N protein NP45-365 (SARS-CoV, UniProt P59595 45-365); assay: EMSA
[6] = target: T1, SARS-CoV N protein CTD (NP248-365); assay: EMSA; remark: listed apart in the source

B1: SARS-CoV NP248-365 (C-terminal domain of the SARS-CoV nucleocapsid protein, residues 248-365) (domain or fragment)
chain: TKKSAAEASKKPRQKRTATKQYNVTQAFGRRGPEQTQGNFGDQDLIRQGTDYKHWPQIAQFAPSASAFFGMSRIGMEVTPSGTWLTYHGAIKLDDKDPQFKDNVILLNKHIDAYKTFP
binding result [1]: binds

B2: s2m 32-mer ssRNA (ssRNA)
RNA: CGAGGCCACGCGGAGUACGAUCGAGGGUACAG
binding result [2]: binds | binding result [3]: binds | binding result [4]: no binding | binding result [5]: binds

B3: 32-mer s2m dsDNA (dsDNA)
DNA 1: B2 RNA with U16T, U21T, U28T
DNA 2: CTGTACCCTCGATCGTACTCCGCGTGGCCTCG
binding result [4]: no binding | binding result [6]: binds

B4: 32-mer ssDNA mimic of s2m (ssDNA)
DNA: B2 RNA with U16T, U21T, U28T
binding result [2]: binds | binding result [3]: binds | binding result [4]: no binding | binding result [5]: binds
